# In patent publication US20160303225A1 (HENRY M JACKSON FOUNDATION FOR THE ADVANCEMENT OF MILITARY …, published 2016):
# B1: HCMV gH/gL fusion protein (other)
# chain: DATVSVAPTVAEKVPAECPELTRRCLLGEVFQGDKYESWLRPLVNVTRRDGPLSQLIRYRPVTPEAANSVLLDDAFLDTLALLYNNPDQLRALLTLLSSDTAPRWMTVMRGYSECGDGSPAVYTCVDDLCRGYDLTRLSYGRSIFTEHVLGFELVPPSLFNVVVAIRNEATRTNRAVRLPVSTAAAPEGITLFYGLYNAVKEFCLRHQLDPPLLRHLDKYYAGLPPELKQTRVNLPAHSRYGPQAVDARGGGGSGGGGSGGGGSYGAEAISEPLDKAFHLLLNTYGRPIRFLRENTTQCTYNSSLRNSTVVRENAISFNFFQSYNQYYVFHMPRCLFAGPLAEQFLNQVDLTETLERYQQRLNTYALVSKDLASYRSFSQQLKAQDSLGEQPTTVPPPIDLSIPHVWMPPQTTPHGWTESHTTSGLHRPHFNQTCILFDGHDLLFSTVTPCLHQGFYLIDELRYVKITLTEDFFVVTVSIDDDTPMLLIFGHLPRVLFKAPYQRDNFILRQTEKHELLVLVKKDQLNRHSYLKDPDFLDAALDFNYLDLSALLRNSFHRYAVDVLKSGRCQMLDRRTVEMAFAYALALFAAARQEEAGAQVSVPRALDRQAALLQIQEFMITCLSQTPPRTTLLLYPTAVDLAKRALWTPNQITDITSLVRLVYILSKQNQQHLIPQWALRQIADFALKLHKTHLASFLSAFARQELYLMGSLVHSMLVHTTERREIFIVETGLCSLAELSHFTQLLAHPHHEYLSDLYTPCSSSGRRDHSLERLTRLFPDATVPTTVPAALSILSTMQPSTLETFPDLFCLPLGESFSALTVSEHVSYVVTNQYLIKGISYPVSTTVVGQSLIITQTDSQTKCELTRNMHTTHSITAALNISLENCAFCQSALLEYDDTQGVINIMYMHDSDDVLFALDPYNEVVVSSPRTHYLMLLKNGTVLEVTDVVVDATDSRLHHHHHH
# notes: It was expressed in CHO DG44 cells; also called monomeric gH/gL; gH/gL heterodimer
# Biological target: T1, modified HCMV gB (homotrimeric complex of modified human cytomegalovirus glycoprotein B) (human cytomegalovirus (HCMV), UniProt F5HB53 25-750)
# T1 construct: It runs as a 360 kDa homotrimer under native or partially reducing conditions and as a 120 kDa monomer under fully reducing or denaturing conditions; also called trimeric HCMV gB; HCMV trimeric gB
# Test: purified proteins mixed 1:1 (molecular ratio) and incubated at room temperature for 2 hours; Western blot under non-reducing conditions
binder,measurement,value
B1,binding result,binds
